Measured values: patent CN105461808A (CHANGCHUN GENESCIENCE PHARMACEUTICALS CO LTD, dated 2016)

B1: H017-6F11.3.2 (antibody, mouse IgG2b, V domains shown)
VH: EVQLQQSGAELVKPGASVKLSCTASGFNIKDTYIHWMRQRPEQGLEWIGRIDPANDNTKYDPKFQGKATVTADTSSNTAYLQLSSLTSEDTAVYYCARGLRLRYFDVWGAGTTVTVSS
VL: DIQMTQTPSSLSASLGGKVTITCKASQDIHKYIAWYQHKPGKGPRLLIHYTSTLQPGIPSRFSGSGSGRDFSFSISNLEPEDFETYYCLQYENLLPTFGGGTKLEIK
notes: Mouse hybridoma antibody purified from supernatant
B2: H017-9C10.2.8 (antibody, mouse IgG1, V domains shown)
VH: QVQLKQSGFGLVLPSQSLSITCTVSGFSLTSYGVHWVRQSPGKGLEWLGLIWSGGGTDYNAAFISRLSISKDNSKSQVFFKINSLQANDTAIYYCARQLGLRAMDYWGQGTSVTVSS
VL: DILLTQSPAILSVSPGERVSFSCRASQSIGTTIHWYQQRTNGSPRLLIKYASESVSGIPSRFSGSGSGTDFTLSINSVESEDIADYYCQQSNSWPLTFGAGTKLEIK
notes: as for B1
B3: H018-17B5.5.1 (antibody, mouse IgG1, V domains shown)
VH: QVQLQQSGAELMKPGASVKISCKATGYKFSSYWIEWVKQRPGHGLEWIGEILPGSGNPNYDEKFKGKATFTADTSSNTAYMQLSSLTSEDSAVYYCARERWMDSWGQGTSVTVSS
VL: DIQMTQTASSLSASLGDRVTISCSASQGIFNYLNWYQQKPDGTVTVLIYYTSRLHSGVPSRFSGSGSGTDYSLTISNLEPEDIATYYCQQYSKLPYTFGGGTKLEIKR
notes: as for B1

How the values were obtained:
PDL1-hFc = biological target: T1, PDL1-hFc (human, UniProt Q9NZQ7 19-238, limits assumed); assay: ELISA, PDL1-hFc coated 1 ug/ml, antibody titrated, HRP secondary
T1 construct: Coating antigen of the ELISA on human PD-L1 and of the T cell proliferation assay; also called humanPDL-1; 人PDL-1; not shown: human Fc (hFc)

MonkeyPDL1-his = biological target: T2, MonkeyPDL1-his (monkey); assay: ELISA, MonkeyPDL1-his coated 1 ug/ml, antibody titrated, HRP secondary
T2 construct: Coating antigen of the ELISA on monkey PD-L1; also called 猴PDL-1

T1 sequence (Q9NZQ7 19-238 limits assumed): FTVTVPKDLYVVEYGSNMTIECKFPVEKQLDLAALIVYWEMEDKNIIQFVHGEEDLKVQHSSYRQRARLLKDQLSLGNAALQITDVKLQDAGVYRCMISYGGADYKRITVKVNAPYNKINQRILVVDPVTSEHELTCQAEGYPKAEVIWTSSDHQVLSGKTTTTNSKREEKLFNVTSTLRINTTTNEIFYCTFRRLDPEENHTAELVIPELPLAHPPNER

Row | Binder | EC50 (PDL1-hFc) [nM] | EC50 (MonkeyPDL1-his) [nM]
1 | B1 | 0.049 | 0.123
2 | B2 | 0.079 | 0.191
3 | B3 | 0.133 | 0.7
